The results in this text go back to the supplement of paper PMC12042874.

± gives the uncertainty stated by the source.

This data set can be described thus: amyloid nucleation score (Sup35N fusion, yeast selection) (log enrichment); library NNK3; higher = more nucleation; inactive = no reads after selection. Summed up:
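In psi-negative yeast, Sup35N fusions carrying peptides of 20 random codons were induced with 100 μM copper sulfate for 24 hours. The cells then grew 7 days at 30°C on medium lacking adenine and uracil, and plasmid inserts from input and output were Illumina-sequenced, excluding sequences with under 100 input reads. Nucleation score is the DiMSum log enrichment of output over input reads, centred on the mode score of non-aggregating sequences.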
In the case of LDWLICSWGN, the amyloid nucleation score entry was “inactive”. In the case of LEALSLDVNDVVRQYSNSEG, the amyloid nucleation score result was “inactive”. For LELGIYHLMERGIL, the amyloid nucleation score result is “inactive”. As for LELVRG, the amyloid nucleation score entry is “inactive”. As to LEQYEKLRGSPKVNRRMCNQ, the amyloid nucleation score result is “inactive”. To LERTNWCQYHL belongs “inactive”; to LERVSVSTQYLRLHLDLNSF, “inactive”. In the case of LFCCPDLFRRG, the amyloid nucleation score was determined as 2.4 ± 0.09. To LFCIWSSVLVRVHVFQKW belongs “inactive”.

For the substance LFDFYRNSVTD, the amyloid nucleation score result was “inactive”. In the case of LFEGDQDGMRVCSHHMVFMI, the amyloid nucleation score result was “inactive”. As for LFFCNCCYGICS, the figure is 2.4 ± 0.079; as for LFFFMALRVGLPNNTNMGMK, “inactive”.

In the case of LFFMIVFSLYEFVMCFSSTR, the amyloid nucleation score entry was “inactive”. To LFFSNT belongs “inactive”; to LFFYYMNSDLVR, “inactive”.

As to LFGTFYPFSTTRFNVVKPDG, the amyloid nucleation score result is “inactive”. As for LFISFIVLRKALFTYTCLCF, the entry is “inactive”; as for LFKMPCLILVWPDSMFATSL, “inactive”.

For the substance LFLIGLLGRCDGDFYCIYYT, the amyloid nucleation score was found to be 1.04 ± 0.21.

Consider LFLISG, for which the amyloid nucleation score entry is “inactive”. To LFRGRCAPLFSQSVA belongs “inactive”; to LFRLKNRFEDKVGNSIRLWE, “inactive”. Take LFTACNLKIDVLLSTRSFAL: the amyloid nucleation score came to 1.6 ± 0.079.

In the case of LFTELGSILF, the amyloid nucleation score entry was “inactive”. As to LFTLWVMRFEFWYSCFFVSV, the amyloid nucleation score result was “inactive”. To LFVASLTTCIFWA belongs 2.4 ± 0.054; to LFVIKGENNSEEYTNVNFWR, 0.389 ± 0.23; to LFVIVMSFLFGWFFYRNNYA, 1.84 ± 0.099. With LFVMSLFGHLGLQIYRCLAL, the amyloid nucleation score entry was “inactive”. As for LFVMVQLCQL, the figure is 0.797 ± 0.13; as for LGAAASSGRPMLTKYHLFWA, “inactive”; as for LGAVCVQMKKIDLSKTLETR, “inactive”. LGESMGRHVKRNKSAPERGM: the amyloid nucleation score result was “inactive”.

Take LGFSVYSLA: the amyloid nucleation score entry was “inactive”. As for LGGKDSASILIVPWTILSGL, the entry is “inactive”; as for LGGLCL, “inactive”; as for LGIIH, “inactive”. As for LGMIHFVFMYFETYCYTYTI, the entry is “inactive”; as for LGMVYICYYISVIVDPYSYS, 0.246 ± 0.25; as for LGNSFLE, -0.445 ± 0.84.

Take LGRYWHVIKLDLVPHMKWCE: the amyloid nucleation score entry was “inactive”. To LGSLVLLRFWY belongs -0.181 ± 1.4; to LGTPYMDMRG, 1.29 ± 0.15; to LGVPSIPGT, “inactive”.

LGVTGINSVIYMYEMVS: the amyloid nucleation score entry is “inactive”. As for LGWLVGSGKVNRVRPGSLNS, the entry is “inactive”; as for LHCLEFSCVRHSVRY, 2.14 ± 0.073; as for LHCPISYLAMSKKS, “inactive”. On to LHLHFAIKKLGLRLSTKWWV, for which the amyloid nucleation score entry was “inactive”. For LHPLYRFSANSSKDLFTSRL, the amyloid nucleation score entry was “inactive”. To LHPYHYIWKMAHL belongs “inactive”. To LIDSADWRCVMVVIRLGRCR belongs “inactive”; to LIFCNATGFTYRWPLTWVVM, “inactive”; to LIFFWSIEA, “inactive”. As for LIFTTTRSLFTALPGFEYKD, the amyloid nucleation score result is “inactive”. As for LIISFKYCFPWKVVSTSVYN, the figure is 1.17 ± 0.17. Turning to LIKSSRLCLNRWEWAAGSGM, the amyloid nucleation score result was “inactive”. On to LILAMSRLALWSL, for which the amyloid nucleation score entry is “inactive”. To LILYIVAISCSSARSLLRVG belongs “inactive”; to LINKHNRVMYLAICA, “inactive”. With LINKLENLIYSG, the amyloid nucleation score result was “inactive”. To LINSNVNTVSLFIPFSRMED belongs 1.58 ± 0.1; to LIRMQVGLLGV, “inactive”. As for LISLPVG, the figure is -0.254 ± 0.7; as for LITKWKWEFANTQWRSGQKG, 1.36 ± 0.15. As for LIVLVMHKLYKLWSGRLRVV, the entry is “inactive”. Take LIYILWH: the amyloid nucleation score result is “inactive”. To LIYRLGNVHVPKYW belongs “inactive”. As to LKCDLMWLMLDNYTAVDSFR, the amyloid nucleation score result was “inactive”. Turning to LKCDWC, the amyloid nucleation score result was “inactive”. For the substance LKDYYFVLGHALYVLRNPMS, the amyloid nucleation score amounted to 1.08 ± 0.13. As for LKFEVVMVLFSTIC, the entry is “inactive”; as for LKHVWLSDRALGSSLTCMAG, “inactive”; as for LKKVLPYGVRWTDITGPWVS, “inactive”. To LKMSLPYNMMVIILKRGGAY belongs “inactive”; to LKVSAFAYDKFLQRYMTVVT, “inactive”; to LKVYR, “inactive”.

For the substance LKYNEKDPFECH, the amyloid nucleation score is -0.318 ± 0.42.

Turning to LLAVLALVGLC, the amyloid nucleation score entry was “inactive”. As for LLCIFDSRCERLNVLAFRYV, the entry is “inactive”; as for LLCLLQEIGFVAITGWI, “inactive”. Regarding LLDDVIRDAMPGSAGRSISG, the amyloid nucleation score result was “inactive”. The substance LLFLNFTICCYSFRKGMHGF came in with an amyloid nucleation score of -0.344 ± 0.32. To LLGRSLH belongs “inactive”. To LLGVLDSLMRRFMNHINETG belongs “inactive”; to LLGVWG, 0.217 ± 0.53.

As to LLHTTLA, the amyloid nucleation score result is “inactive”. Turning to LLIGSGVSYFKTWFARHLTA, the amyloid nucleation score result is “inactive”. To LLLRLLAWYMMVS belongs “inactive”.

Regarding LLLSFYLNGILVIHML, the amyloid nucleation score entry was “inactive”.

LLMGFWIWFINGVCNVRTDS: the amyloid nucleation score result was “inactive”. With LLMLTEQ, the amyloid nucleation score result was “inactive”.

With LLRKRHVLNTK, the amyloid nucleation score result was “inactive”. To LLRVSYFIVLRTLN belongs “inactive”; to LLSFENNSQLVYVCIDNTLE, “inactive”. As for LLSVTCTG, the entry is “inactive”; as for LLTNLCIQYISSTLYYDRLF, “inactive”. Regarding LLVANG, the amyloid nucleation score entry is “inactive”. Consider LLVAYDQIFNF, for which the amyloid nucleation score result is “inactive”.
